Assay results taken from the supplement of paper PMC7877785.
± gives the uncertainty stated by the source.

Experiment: self-splicing fitness, log relative to wild type (ln ratio); higher = more splicing; Tetrahymena group I intron in knt gene, E. coli kanamycin selection, DiMSum; sequences stand for … in CUCUCU…GGAGGGAAAAGUUAUCAGGCAUGCACCUGGUAGCUAGUCUUUAAACCAAUAGAUUGCAUCGGUUUAAAAGGCAAGACCGUCAAAUUGCGGGAAAGGGGUCAACAGCCGUUCAGUACCAAGUCUCAGGGGAAACUUUGAGAUGGCCUUGCAAAGGGUAUGGUAAUAAGCUGACGGACAUGGUCCUAACCACGCAGCCAAGUCCUAAGUCAACAGAUCUUCUGUUGAUAUGGAUGCAGUUCACAGACUAAAUGUCGGUCGGGGAAGAUGUAUUCUUCUCAUAAGAUAUAGUCGGACCUCUCCUUAAUGGGAGCUAGCGGAUGAAGUGAUGCAACACUGGAGCCGCUGGGAACUAAUUUGUAUGCGAAAGUAUAUUGAUUAGUUUUGGAGUACUCGUGGUCG
Method in brief: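 A randomised library covering all eight P1ex-region intron nucleotides was built with the intron in the knt kanamycin-resistance gene on pET-22b(+) and held in E. coli BL21(DE3). Cells were grown overnight at 37°C or 30°C on LB agar, with or without 25 μg/mL kanamycin, plus 100 μg/mL carbenicillin, 50 μM IPTG and 0.2% rhamnose, and pooled colonies were amplicon-sequenced on an Illumina HiSeq 2500. DiMSum fitness is the error-weighted combination of wild-type-normalised replicate fold changes, kanamycin versus none.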

Row | Sequence | self-splicing fitness (ln) (30 °C) | self-splicing fitness (ln) (37 °C)
1 | UCAGAGCAAUAUUACGCGUA | -2.57 ± 0.32 | -0.569 ± 0.16
2 | UCAGAGCAAUAUUACGGAAU | -2.94 ± 0.17 | -2.22 ± 0.15
3 | UCAGAGCAAUAUUACGGAUC | – | -2.15 ± 0.33
4 | UCAGAGCAAUAUUACGGGCU | -4.78 ± 0.36 | -2.46 ± 0.25
5 | UCAGAGCAAUAUUACGGGGC | -3.3 ± 0.26 | -2.42 ± 0.41
6 | UCAGAGCAAUAUUACGUAAC | -2.5 ± 0.26 | –
7 | UCAGAGCAAUAUUACGUAAG | -2.92 ± 0.14 | -1.82 ± 0.13
8 | UCAGAGCAAUAUUACGUAGA | -0.896 ± 0.075 | 0.113 ± 0.12
9 | UCAGAGCAAUAUUACGUCAU | -3.84 ± 0.35 | –
10 | UCAGAGCAAUAUUACGUCGG | -1.87 ± 0.2 | -0.479 ± 0.16
11 | UCAGAGCAAUAUUACGUCUC | -2.81 ± 0.34 | –
12 | UCAGAGCAAUAUUACGUGGG | -3.2 ± 0.16 | -1.96 ± 0.14
13 | UCAGAGCAAUAUUACGUGGU | -4.35 ± 0.39 | -1.78 ± 0.22
14 | UCAGAGCAAUAUUACGUUAG | -3.86 ± 0.42 | -3.25 ± 0.35
15 | UCAGAGCAAUAUUACGUUCG | -1.54 ± 0.11 | -1.07 ± 0.15
16 | UCAUAGCAAUAUUACGAAGA | -2.06 ± 0.36 | -1.56 ± 0.38
17 | UCAUAGCAAUAUUACGACGU | -1.76 ± 0.12 | -1.37 ± 0.15
18 | UCAUAGCAAUAUUACGAGAU | -3.85 ± 0.21 | -3.29 ± 0.26
19 | UCAUAGCAAUAUUACGAGGU | -2.98 ± 0.24 | -3.42 ± 0.32
20 | UCAUAGCAAUAUUACGAUCU | -3.02 ± 0.19 | -1.88 ± 0.18
21 | UCAUAGCAAUAUUACGAUGU | -2.55 ± 0.12 | -0.735 ± 0.1
22 | UCAUAGCAAUAUUACGCACA | -1.21 ± 0.13 | -0.159 ± 0.11
23 | UCAUAGCAAUAUUACGCAUA | – | -1.34 ± 0.47
24 | UCAUAGCAAUAUUACGCCCU | -2.75 ± 0.36 | –
25 | UCAUAGCAAUAUUACGCGGG | -2.79 ± 0.14 | -1.99 ± 0.12

Row | Sequence | self-splicing fitness (ln) (30 °C) | self-splicing fitness (ln) (37 °C)
26 | UCAUAGCAAUAUUACGCUCC | -2.92 ± 0.31 | -0.786 ± 0.27
27 | UCAUAGCAAUAUUACGCUUU | -3.91 ± 0.24 | -2.41 ± 0.25
28 | UCAUAGCAAUAUUACGGAGG | -3.54 ± 0.31 | -2.82 ± 0.2
29 | UCAUAGCAAUAUUACGGCAC | -2.93 ± 0.5 | -2.15 ± 0.37
30 | UCAUAGCAAUAUUACGGCAU | -3.91 ± 0.35 | -2.04 ± 0.23
31 | UCAUAGCAAUAUUACGGCUC | -2.73 ± 0.24 | -1.78 ± 0.26
32 | UCAUAGCAAUAUUACGGGCC | – | -3.67 ± 0.46
33 | UCAUAGCAAUAUUACGGGGC | – | -3.14 ± 0.37
34 | UCAUAGCAAUAUUACGGUAC | – | -3.21 ± 0.33
35 | UCAUAGCAAUAUUACGGUGG | -3.13 ± 0.15 | -2.07 ± 0.17
36 | UCAUAGCAAUAUUACGUCGA | -0.314 ± 0.093 | -0.745 ± 0.13
37 | UCAUAGCAAUAUUACGUUUG | -3.04 ± 0.18 | -1.84 ± 0.2
38 | UCCAAGCAAUAUUACGACGC | -2.45 ± 0.18 | -1.25 ± 0.14
39 | UCCAAGCAAUAUUACGACUC | -3.4 ± 0.29 | -2.62 ± 0.24
40 | UCCAAGCAAUAUUACGAGAA | -0.789 ± 0.16 | -0.569 ± 0.17
41 | UCCAAGCAAUAUUACGAGAG | -2.32 ± 0.12 | -1.85 ± 0.14
42 | UCCAAGCAAUAUUACGAGCC | -2.51 ± 0.49 | -1.88 ± 0.29
43 | UCCAAGCAAUAUUACGAGUC | -3.66 ± 0.19 | -2.97 ± 0.24
44 | UCCAAGCAAUAUUACGAUAC | -3.99 ± 0.42 | -1.11 ± 0.3
45 | UCCAAGCAAUAUUACGAUCA | -1.1 ± 0.14 | -0.861 ± 0.15
46 | UCCAAGCAAUAUUACGAUGU | -1.37 ± 0.057 | -0.338 ± 0.082
47 | UCCAAGCAAUAUUACGCAAU | -3.44 ± 0.22 | -2.71 ± 0.26
48 | UCCAAGCAAUAUUACGCCUU | -4.12 ± 0.22 | -2.98 ± 0.21
49 | UCCAAGCAAUAUUACGGAGA | -0.684 ± 0.087 | -0.415 ± 0.092
50 | UCCAAGCAAUAUUACGGAUU | -4.35 ± 0.2 | -3.1 ± 0.18

Row | Sequence | self-splicing fitness (ln) (30 °C) | self-splicing fitness (ln) (37 °C)
51 | UCCAAGCAAUAUUACGGCAG | -4.85 ± 0.46 | -2.84 ± 0.28
52 | UCCAAGCAAUAUUACGGCUG | -2.69 ± 0.15 | -3.33 ± 0.22
53 | UCCAAGCAAUAUUACGGGCU | -3.43 ± 0.14 | -1.95 ± 0.12
54 | UCCAAGCAAUAUUACGGUAG | -4.7 ± 0.41 | -2.21 ± 0.16
55 | UCCAAGCAAUAUUACGUCGA | -0.163 ± 0.075 | 0.376 ± 0.1
56 | UCCAAGCAAUAUUACGUGUA | -0.565 ± 0.043 | 0.504 ± 0.057
57 | UCCAAGCAAUAUUACGUUCG | -3.57 ± 0.27 | -2.2 ± 0.21
58 | UCCCAGCAAUAUUACGAACU | -3.52 ± 0.33 | -2.92 ± 0.43
59 | UCCCAGCAAUAUUACGAAGC | -3.98 ± 0.42 | -1.71 ± 0.24
60 | UCCCAGCAAUAUUACGACGU | -1.53 ± 0.071 | -0.16 ± 0.084
61 | UCCCAGCAAUAUUACGAUGC | -4.03 ± 0.3 | -3.29 ± 0.32
62 | UCCCAGCAAUAUUACGCCGC | -4.73 ± 0.32 | -3.05 ± 0.27
63 | UCCCAGCAAUAUUACGCGAA | -2.11 ± 0.16 | -1.07 ± 0.14
64 | UCCCAGCAAUAUUACGCGCG | -3.27 ± 0.17 | -2.98 ± 0.24
65 | UCCCAGCAAUAUUACGCUGU | -3.99 ± 0.23 | -2.18 ± 0.23
66 | UCCCAGCAAUAUUACGGCAC | -3.11 ± 0.12 | -1.88 ± 0.15
67 | UCCCAGCAAUAUUACGGCCA | -0.679 ± 0.095 | -0.115 ± 0.12
68 | UCCCAGCAAUAUUACGGCUC | -2.83 ± 0.14 | -2.31 ± 0.24
69 | UCCCAGCAAUAUUACGGGCC | -3.03 ± 0.22 | -1.7 ± 0.18
70 | UCCCAGCAAUAUUACGGGGG | -4 ± 0.18 | -3.66 ± 0.33
71 | UCCCAGCAAUAUUACGGGUU | -2.48 ± 0.07 | -1.54 ± 0.079
72 | UCCCAGCAAUAUUACGUAUU | -2.91 ± 0.2 | -3.28 ± 0.28
73 | UCCCAGCAAUAUUACGUCAA | -2.71 ± 0.18 | -1.13 ± 0.16
74 | UCCCAGCAAUAUUACGUCAG | -3.74 ± 0.16 | -2.83 ± 0.16
75 | UCCCAGCAAUAUUACGUGAC | -2.74 ± 0.15 | -3.06 ± 0.32

Row | Sequence | self-splicing fitness (ln) (30 °C) | self-splicing fitness (ln) (37 °C)
76 | UCCCAGCAAUAUUACGUGCG | -3.71 ± 0.15 | -2.93 ± 0.17
77 | UCCCAGCAAUAUUACGUGGA | -3.08 ± 0.14 | -1.95 ± 0.15
78 | UCCCAGCAAUAUUACGUGUG | -3.46 ± 0.094 | -2.32 ± 0.093
79 | UCCCAGCAAUAUUACGUUAC | -3.88 ± 0.22 | -2.72 ± 0.27
80 | UCCCAGCAAUAUUACGUUGC | -3.5 ± 0.27 | -2.06 ± 0.27
81 | UCCCAGCAAUAUUACGUUUC | -4.35 ± 0.34 | -2.4 ± 0.28
82 | UCCCAGCAAUAUUACGUUUG | -3.67 ± 0.11 | -2.91 ± 0.15
83 | UCCGAGCAAUAUUACGAACU | – | -2.3 ± 0.32
84 | UCCGAGCAAUAUUACGAAGA | -1.62 ± 0.21 | -1.12 ± 0.18
85 | UCCGAGCAAUAUUACGACAG | -3.18 ± 0.3 | -2.55 ± 0.3
86 | UCCGAGCAAUAUUACGACAU | -3.93 ± 0.031 | -2.98 ± 0.043
87 | UCCGAGCAAUAUUACGACGG | -1.46 ± 0.11 | -0.111 ± 0.17
88 | UCCGAGCAAUAUUACGAGCU | – | -2.68 ± 0.48
89 | UCCGAGCAAUAUUACGAGUA | -1.98 ± 0.16 | -1.1 ± 0.12
90 | UCCGAGCAAUAUUACGCAAA | -3.59 ± 0.33 | -2.51 ± 0.31
91 | UCCGAGCAAUAUUACGCAGU | -2.79 ± 0.33 | -2.31 ± 0.28
92 | UCCGAGCAAUAUUACGCAUU | -2.2 ± 0.19 | -3.08 ± 0.37
93 | UCCGAGCAAUAUUACGCUAA | – | -2.86 ± 0.32
94 | UCCGAGCAAUAUUACGCUCA | -3.08 ± 0.32 | -2.3 ± 0.47
95 | UCCGAGCAAUAUUACGCUCU | -3.31 ± 0.4 | –
96 | UCCGAGCAAUAUUACGCUGC | -2.96 ± 0.24 | -1.84 ± 0.31
97 | UCCGAGCAAUAUUACGGCCG | -4.07 ± 0.34 | –
98 | UCCGAGCAAUAUUACGGGCC | -3.8 ± 0.3 | -2.94 ± 0.35
99 | UCCGAGCAAUAUUACGGUCU | -2.4 ± 0.15 | -1.58 ± 0.13
